Literature values, collected in PMC2827930.
pKd: −log10 of the molar value.

Target: RBPjκ (UniProt P31266)
UniProt P31266, sequence (P31266 53-474): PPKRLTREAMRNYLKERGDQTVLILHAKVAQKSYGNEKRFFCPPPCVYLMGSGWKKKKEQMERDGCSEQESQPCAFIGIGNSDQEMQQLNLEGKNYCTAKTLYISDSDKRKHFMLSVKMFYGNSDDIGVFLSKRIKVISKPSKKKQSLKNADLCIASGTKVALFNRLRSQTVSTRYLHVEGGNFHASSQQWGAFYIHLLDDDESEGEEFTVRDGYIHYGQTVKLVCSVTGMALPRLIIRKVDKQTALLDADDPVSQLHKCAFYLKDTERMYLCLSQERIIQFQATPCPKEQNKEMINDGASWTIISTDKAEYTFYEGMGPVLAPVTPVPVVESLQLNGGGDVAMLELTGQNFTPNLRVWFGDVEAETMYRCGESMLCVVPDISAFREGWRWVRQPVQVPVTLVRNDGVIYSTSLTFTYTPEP

Substance: Notch RAM (from UniProt P46531)
- pKd: 6.70
